Experimental findings from publication PMC11322411 are described below.

For the assay, the target named is GRK2-phosphorylated FLAG-tagged SMOOTHENED (near-full-length mouse SMO, residues 64-674) (mouse) (UniProt P56726). The assay is described as follows: pull-down; purified FLAG-SMO forms (18.2 uM) mixed with PKA-C (10 uM), captured on anti-FLAG M1 sepharose beads, 4°C 2 h; 20 mM HEPES pH 7.5, 150 mM NaCl, 3 mM CaCl2, 10 mM MgCl2, 1 mM ATP, 0.025% GDN, 1 uM SAG21k; eluted with FLAG peptide and EDTA; stain-free SDS-PAGE, densitometry.
UniProt P56726, sequence (P56726 64-674): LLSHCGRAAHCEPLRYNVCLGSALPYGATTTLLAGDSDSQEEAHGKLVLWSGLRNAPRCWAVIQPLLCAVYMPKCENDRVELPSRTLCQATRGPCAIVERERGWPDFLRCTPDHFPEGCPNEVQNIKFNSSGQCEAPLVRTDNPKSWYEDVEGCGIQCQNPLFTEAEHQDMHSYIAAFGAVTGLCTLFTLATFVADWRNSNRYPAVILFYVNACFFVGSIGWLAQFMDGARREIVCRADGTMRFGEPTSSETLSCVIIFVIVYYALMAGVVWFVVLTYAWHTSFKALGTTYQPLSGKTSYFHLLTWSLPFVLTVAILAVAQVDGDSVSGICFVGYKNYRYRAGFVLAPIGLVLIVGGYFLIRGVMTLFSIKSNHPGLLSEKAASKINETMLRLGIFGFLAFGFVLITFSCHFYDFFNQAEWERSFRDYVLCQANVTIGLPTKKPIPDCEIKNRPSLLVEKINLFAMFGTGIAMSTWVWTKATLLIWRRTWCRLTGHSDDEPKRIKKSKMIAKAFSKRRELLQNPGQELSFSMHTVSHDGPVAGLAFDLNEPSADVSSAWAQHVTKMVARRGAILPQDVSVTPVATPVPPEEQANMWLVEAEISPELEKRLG

Substance “protein kinase A catalytic subunit (PKA-C), mouse (from UniProt P05132 1-351) (enzyme)” showed a PKA-C in the FLAG elution as percent of SMO of 25%.
